# Data from patent US20040037843A1.
# Target: HLA-A*2401 (purified HLA class I molecule) (human)
# Experiment: competition with 125I-labelled probe peptide on purified HLA, gel filtration
# Details: not given
row,Substance,relative binding ratio (IC50 of standard peptide / IC50 of test peptide)
1,"PAP peptide, position 163, 10 amino acids",0.0001
2,"PAP peptide, position 183, 9 amino acids",0.11
3,"PAP peptide, position 297, 10 amino acids",0.0001
4,"PAP peptide, position 309, 10 amino acids",0.024
5,"PAP peptide, position 355, 10 amino acids",0.0037
6,"PSA peptide, position 54, 10 amino acids",0.0007
7,"PSM peptide, position 178, 9 amino acids",0.77
8,"PSM peptide, position 638, 9 amino acids",0.0001

# Target: HLA-A*2401 (human)
# Experiment: competition with 125I-labelled probe peptide for purified HLA, gel filtration
# Details: not given
row,Substance,relative binding ratio (IC50 of standard peptide / IC50 of test peptide)
1,"PAP position 70, 10 amino acids (peptide)",0.0022
2,"PSA position 96, 11 amino acids (peptide)",0.12
3,"PSM position 74, 10 amino acids (peptide)",0.23
4,"PSM position 227, 9 amino acids (peptide)",0.44
5,"PSM position 606, 9 amino acids (peptide)",12
6,"PSM position 668, 9 amino acids (peptide)",0.0075

# Target: HLA-A*2401 (human)
# Experiment: as above
# Details: not given
# Remark: another data set of the same source
row,Substance,relative binding ratio (IC50 of standard peptide / IC50 of test peptide)
1,"PSA position 98, 9 amino acids (peptide)",0.0001
2,"PSA position 190, 9 amino acids (peptide)",0.031
3,"PSM position 31, 9 amino acids (printed as 8 in Table XVIII) (peptide)",0.019
4,"PSM position 32, 10 amino acids (peptide)",0.0026
5,"PSM position 409, 10 amino acids (peptide)",0.054
6,"PSM position 448, 9 amino acids (peptide)",0.019
7,"PSM position 565, 10 amino acids (peptide)",1.1
8,"PSM position 582, 10 amino acids (peptide)",0.0002
9,"PSM position 606, 9 amino acids (peptide)",12
10,"PSM position 621, 9 amino acids (peptide)",0.001

# Target: HLA-A*2401 (purified HLA class I molecule) (human)
# Experiment: competition with 125I-labelled standard peptide for purified HLA, gel filtration
# Details: not given
row,Substance,relative binding ratio (IC50 of standard peptide / IC50 of test peptide)
1,"PAP position 297, 10 amino acids (peptide)",0.0001
2,"PSA position 2, 9 amino acids (peptide)",2.1
3,"PSA position 2, 10 amino acids (peptide)",0.0062
4,"PSA position 9, 9 amino acids (peptide)",0.11
5,"PSA position 9, 10 amino acids (peptide)",0.36
6,"PSA position 54, 10 amino acids (peptide)",0.0007
7,"PSA position 96, 11 amino acids (peptide)",0.12
8,"PSA position 224, 9 amino acids (peptide)",0.0001
9,"PSM position 74, 10 amino acids (peptide)",0.23
10,"PSM position 178, 9 amino acids (peptide)",0.77
11,"PSM position 227, 9 amino acids (peptide)",0.44
12,"PSM position 624, 10 amino acids (peptide)",3.2
13,"PSM position 638, 9 amino acids (peptide)",0.0001
14,"PSM position 668, 9 amino acids (peptide)",0.0075

# Target: HLA-A*6802 (human)
# Experiment: as above
# Details: not given
row,Substance,relative binding ratio
1,"PSM position 168, 10 amino acids (peptide)",0.0013

# Target: HLA-A*0206 (human)
# Experiment: competition with 125I-labelled standard peptide for purified HLA
# Details: not given
row,Substance,IC50
1,"peptide 1419.24, PSA.166.V10",502 nM

# Target: HLA-A*6802 (human)
# Experiment: as above
# Details: not given
row,Substance,IC50
1,"peptide 1126.01, PSM.663",976 nM
2,"peptide 1129.10, PSM.288",1540 nM

# Target: HLA-A*2401 (human)
# Experiment: not given
# Details: not given
row,Substance,relative binding ratio (IC50 of standard peptide / IC50 of test peptide)
1,"PSA peptide, position 91, 9 amino acids (A24 supermotif)",0.0007
2,"PSA peptide, position 224, 9 amino acids (A24 supermotif)",0.0001

# Target: HLA-A*0101 (purified HLA class I molecule) (human)
# Experiment: not given
# Details: not given
row,Substance,relative binding ratio (IC50 of standard peptide / IC50 of test peptide)
1,"PSM peptide, position 196, 10 amino acids (A1 supermotif)",0.016

# Target: HLA-A*2401 (human)
# Experiment: not given
# Details: not given
# Remark: another data set of the same source
row,Substance,relative binding ratio (IC50 of standard peptide / IC50 of test peptide)
1,"PSA position 190, 9 amino acids (…) (peptide)",0.031
2,"PSM position 409, 10 amino acids (…) (peptide)",0.054

# Target: HLA-A*0101 (human)
# Experiment: not given
# Details: not given
row,Substance,relative binding ratio (IC50 of standard peptide / IC50 of test peptide)
1,"PSM peptide, position 196, 10 amino acids",0.016

# Target: HLA-A*2401 (human)
# Experiment: not given
# Details: scale: ratio
row,Substance,relative binding ratio (A*2401)
1,"PSA (Prostate Specific Antigen) peptide, position 2, 9 amino acids",2.1
2,"PSA (Prostate Specific Antigen) peptide, position 2, 10 amino acids",0.0062
3,"PSA (Prostate Specific Antigen) peptide, position 9, 9 amino acids",0.11
4,"PSA (Prostate Specific Antigen) peptide, position 9, 10 amino acids",0.36
5,"PSM (Prostate Specific Membrane Antigen) peptide, position 624, 10 amino acids",3.2

# Target: HLA-A*2401 (purified HLA class I molecule) (human)
# Experiment: not given
# Details: not given
row,Substance,relative binding ratio (IC50 of standard peptide / IC50 of test peptide)
1,"PSM (prostate specific membrane antigen) peptide, position 31, 9 amino acids",0.019
2,"PSM (prostate specific membrane antigen) peptide, position 32, 10 amino acids",0.0026
3,"PSM (prostate specific membrane antigen) peptide, position 565, 10 amino acids",1.1
4,"PSM (prostate specific membrane antigen) peptide, position 582, 10 amino acids",0.0002
5,"PSM (prostate specific membrane antigen) peptide, position 621, 9 amino acids (from UniProt Q04609 621-629)",0.001
